According to US20090233850A1 (PHILADELPHIA HEALTH AND EDUCATION CORPORATION D B A DREXEL …, published 2009):

Legend:
[1] = target: T1, recombinant monomeric HIV-1 YU2 gp120, produced in Drosophila S2 cells (HIV-1 YU2, UniProt P35961 32-498, limits assumed, glycosylated (high-mannose glycans are the CVN binding sites)); experiment: competition ELISA on plate-adsorbed YU2 gp120; blocked ligand sCD4 at 0.5 ug/ml, detected with anti-CD4; percent of uninhibited control
T1 construct: domain: gp120

[2] = target: T1, recombinant monomeric HIV-1 YU2 gp120, …; experiment: competition ELISA on plate-adsorbed YU2 gp120; competitor mAb F105 at a 1:20,000 dilution; percent of control without L5
[3] = target: T1, recombinant monomeric HIV-1 YU2 gp120, …; experiment: competition ELISA on plate-adsorbed YU2 gp120; competitor mAb 2G12 at 50 ug/ml; percent of control without L5
[4] = target: T1, recombinant monomeric HIV-1 YU2 gp120, …; experiment: competition ELISA, adsorbed YU2 gp120, increasing L5 with 2 ug/ml mAb 17b as competitor; inhibition of mAb 17b binding to gp120, ELISA
[5] = target: T1, recombinant monomeric HIV-1 YU2 gp120, …; experiment: ELISA, 100 ng YU2 gp120 adsorbed on the plate, serial dilutions of L5, detection with polyclonal anti-CVN, BSA background subtracted
[6] = target: T1, recombinant monomeric HIV-1 YU2 gp120, …; experiment: ELISA, 100 ng YU2 gp120 adsorbed on the plate, serial dilutions of L5-S12p1, detection with polyclonal anti-CVN, BSA background subtracted
Procedure: Error bars indicate standard deviation.
YU2 was adsorbed to a 96-well EIA/RIA plate overnight at 4° C.
Ninety-six well plates (Corning) were coated with either 100 ng of the indicated gp120 or BSA overnight at 4° C. The wells were washed three times with 1×PBS-T (PBS, 0.1% Tween) and non-specific binding blocked with 1% (wt/vol) BSA in PBS. […] After a one hour incubation, the wells were washed and incubated with a 1/2500 dilution of anti-rabbit HRP (Amersham) for one hour at room temperature. The wells were washed three times and the extent of binding was then determined by OPD (o-phenylenediamine, Sigma) and absorbance measured at 450 nm.

[7] = target: T2, HIV-1 SF162 gp120 (Clade B) (HIV-1 SF162, UniProt P19550 32-502); experiment: ELISA, 100 ng gp120 adsorbed on the plate, 50 nM CVN, detection with polyclonal anti-CVN, BSA background subtracted
T2 construct: domain: gp120

B1: L5 chimera (CVN-12p1): CVN, linker of five Gly4Ser repeats, 12p1, C-terminal hexa-histidine tag (other)
chain: LGKFSQTCYNSAIQGSVLTSTCERTNGGYNTSSIDLNSVIENVDGSLKWQPSNFIETCRNTQLAGSSELAAECKTRAQQFVSTKINLDDHIANIDGTLKYEGSGGGGSGGGGSGGGGSGGGGSGGGGSRINNIPWSEAMMHHHHHH
notes: Fusion protein, about 15 kDa; also called the chimera
[1]
  IC50 (read off the curve): ~20 nM
[2]
  IC50 (read off the curve): ~20 nM
[3]
  IC50 (read off the curve): ~40 nM
[4]
  IC50: 38 nM
[5]
  EC50 (read off the curve): ~9 nM

B2: L5-S12p1: chimera of CVN, linker of five Gly4Ser repeats and scrambled (non-sense) 12p1 peptide (other)
chain: LGKFSQTCYNSAIQGSVLTSTCERTNGGYNTSSIDLNSVIENVDGSLKWQPSNFIETCRNTQLAGSSELAAECKTRAQQFVSTKINLDDHIANIDGTLKYEGSGGGGSGGGGSGGGGSGGGGSGGGGSWRIMMIPSEANNHHHHHH
notes: check the entry type; also called scrambled chimera
[6]
  EC50 (read off the curve): ~20 nM

B3: cyanovirin-N (CVN), recombinant, periplasmic expression in E. coli, hexa-histidine tagged (other)
chain: LGKFSQTCYNSAIQGSVLTSTCERTNGGYNTSSIDLNSVIENVDGSLKWQPSNFIETCRNTQLAGSSELAAECKTRAQQFVSTKINLDDHIANIDGTLKYEHHHHHH
notes: Lectin, 11 kDa
[7]
  binding result: binds
